From paper doi:10.1101/667956 (bioRxiv, 2019)
Positions count from the first letter of the chain named. Where “and” joins values, the source holds several entries; their conditions need not be identical. Equal entries are not always repeated.

Tests used:
cross-linking = target: the molecule itself; assay: cross-linking
SEC-MALS [1] = target: the molecule itself; assay: SEC-MALS
[2] = target: the molecule itself; assay: single-molecule TIRF photobleaching
DLS = target: the molecule itself; assay: DLS
SEC-MALS [3] = target: the molecule itself; assay: SEC-MALS; remark: listed apart in the source
SAXS = target: the molecule itself; assay: SAXS

B1: mTurquoise2-fused full-length Arc (1-396), wild type (natural protein)
chain: MELDHMTTGGLHAYPAPRGGPAAKPNVILQIGKCRAEMLEHVRRTHRHLLTEVSKQVERELKGLHRSVGKLENNLDGYVPTGDSQRWKKSIKACLCRCQETIANLERWVKREMHVWREVFYRLERWADRLESMGGKYPVGSEPARHTVSVGVGGPEPYCQEADGYDYTVSPYAITPPPAAGELPEQESVGAQQYQSWVPGEDGQPSPGVDTQIFEDPREFLSHLEEYLRQVGGSEEYWLSQIQNHMNGPAKKWWEFKQGSVKNWVEFKKEFLQYSEGTLSREAIQRELDLPQKQGEPLDQFLWRKRDLYQTLYVDAEEEEIIQYVVGTLQPKFKRFLRHPLPKTLEQLIQRGMEVQDGLEQAAEPSVTPLPTEDETEALTPALTSESVASDRTQPE
- stoichiometry N (cross-linking): 2 and 3

B2: mTq2-fused full-length Arc^s92-98A (natural protein)
chain: B1 chain with K92A, C94A, L95A, C96A, R97A, C98A
- stoichiometry N (cross-linking): 2

B3: mTq2-fused full-length Arc^s113-119A (natural protein)
chain: B1 chain with M113A, H114A, V115A, W116A, R117A, E118A, V119A
- stoichiometry N (cross-linking): 2

Protein: QETIANLERWVKREMHVWREVFYRLERWADRLES [synthetic peptide of the Arc oligomerization region (residues 99-132)]
- stoichiometry N (SEC-MALS [1]): 6

B4: recombinantly purified rat Arc^s113-119A with an N-terminal SNAP tag and a C-terminal AviTag (natural protein)
chain: B1 chain with M113A, H114A, V115A, W116A, R117A, E118A, V119A
modifications: AlexaFluor488 SNAP substrate on the SNAP tag; C-terminally biotinylated (AviTag)
- binding result [2]: binds

B5: purified wild-type human Arc (untagged) (natural protein)
chain: MELDHRTSGGLHAYPGPRGGQVAKPNVILQIGKCRAEMLEHVRRTHRHLLAEVSKQVERELKGLHRSVGKLESNLDGYVPTSDSQRWKKSIKACLCRCQETIANLERWVKREMHVWREVFYRLERWADRLESTGGKYPVGSESARHTVSVGVGGPESYCHEADGYDYTVSPYAITPPPAAGELPGQEPAEAQQYQPWVPGEDGQPSPGVDTQIFEDPREFLSHLEEYLRQVGGSEEYWLSQIQNHMNGPAKKWWEFKQGSVKNWVEFKKEFLQYSEGTLSREAIQRELDLPQKQGEPLDQFLWRKRDLYQTLYVDADEEEIIQYVVGTLQPKLKRFLRHPLPKTLEQLIQRGMEVQDDLEQAAEPAGPHLPVEDEAETLTPAPNSESVASDRTQPE
- stoichiometry N (DLS): 40 to 55 Arc molecules per capsid

B6: purified Arc^s113-119A (untagged) (natural protein)
chain: B5 chain with M113A, H114A, V115A, W116A, R117A, E118A, V119A
- stoichiometry N (SEC-MALS [3]): 2

B7: Arc^s113-119A with an N-terminal MBP fusion tag (natural protein)
chain: B5 chain with M113A, H114A, V115A, W116A, R117A, E118A, V119A
- stoichiometry N (SAXS): 2
